For experiment [1], the system named is SU.86.86 cells. The experiment is described as follows: Binding to SU.86.86 pancreatic cancer cells by flow cytometry. The protocol: Purified m5F1 and control antibodies at 1 ug/ml were added to 2×10^5 SU.86.86 cells and incubated for 1 hour at 4° C., washed twice with PBS containing 1% FBS, followed by incubation with 1 ug/ml of corresponding secondary antibodies (R-PE-conjugated goat F(ab′)2 anti-mouse IgG(H+L), Southern Biotech, Cat. No. 1032-09) at 4° C. for 1 hour. At the end of staining, samples were washed twice with PBS containing 1% FBS and analyzed by flow cytometer. All flow cytometric analyses were performed on a BD-LSR flow cytometer (Becton Dickinson) using the Cell Quest software.
(§1) Binding experiments were carried out for antibodies c5F1.v15, c5F1.v16, and c5F1.v24. […] Apoptosis assay was carried out for antibody c5F1.v15.
(In general: A flow cytometer gives signals particle by particle.)

The test system of experiment [2] is COLO 205 cells. The experiment is described as follows: Binding assay: flow cytometric binding of 5F1 antibodies to COLO 205 cells. To be noted: for binding to Colo 205 (words): FIG. 3, 0.125 to 4 ug/ml. The protocol: Purified m5F1, c5F1-v0, c5F1-v15 and c5F1-v16 antibodies at the concentration ranging from 0.125 to 4 ug/ml were added to 1.5×10^5 COLO 205 cells and incubated for 30 min at 4° C., washed for twice with PBS containing 2% FBS and 0.05% NaN3, followed by incubation with 1 μg/ml of corresponding secondary antibodies (R-PE-conjugated goat F(ab′)2 anti-mouse IgG(H+L), Southern Biotech, Cat. No. 1032-09; or R-PE-conjugated goat anti-human IgG, Southern Biotech, Cat. No. 2040-09) at 4° C. for 30 min. At the end of staining, samples were washed twice with PBS containing 2% FBS and 0.05% NaN3 and analyzed by flow cytometer. All flow cytometric analyses were performed on a BD-LSR flow cytometer (Becton Dickinson) using the Cell Quest software.
Purified m5F1, c5F1-v0, c5F1-yl7, c5F1-v24 and c5F1-v25 antibodies at 1 ug/ml were added to 2×10^5 Colo 205 cells and incubated for 30 min at 4° C., washed for twice with PBS containing 1% FBS, followed by incubation with 1 ug/ml of corresponding secondary antibodies (R-PE-conjugated goat F(ab′)2 anti-mouse IgG(H+L), Southern Biotech, Cat. No. 1032-09; or R-PE-conjugated goat anti-human IgG, Southern Biotech, Cat. No. 2040-09) at 4° C. for 30 min. At the end of staining, samples were washed twice with PBS containing 1% FBS and 0.05% NaN3 and analyzed by flow cytometer. All flow cytometric analyses were performed on a BD-LSR flow cytometer (Becton Dickinson) using the Cell Quest software.

Experiment [3] has as its system COLO 205 cells. In words: Six-hour apoptosis assay (Annexin V / PI, FACS) in COLO 205. The class given is cell-based. To be noted: 6 h. The protocol:
(§2) 1.5×10^5 of COLO 205 cells were seeded into the wells of 96-well plates. Aliquots of purified m5F1, c5F1-v0, c5F1-v15, c5F1-v16 and control antibodies at the concentration ranging from 2 to 32 ug/ml were prepared freshly in culture medium and added to each well. The sample treated with m9E10 and h16C11A were used as isotype control. The treated cells were kept at 37° incubator for 6 h before FACS analysis for apoptosis. For cellular apoptosis assay, Annexin V staining was measured using Annexin-V-FITC Apoptosis Detection Kit (Strong Biotech, Cat. No. AVK250) following the manufacturer's instruction. In brief, the treated cells were harvested and resuspended in Annexin V binding buffer containing Annexin V-FITC at room temperature. After 15 min incubation in the dark, the cells were washed twice with 200 μl of Annexin V binding buffer. Before FACS analysis, 0.25 μg/ml of propidium iodide (PI) was added. All flow cytometric analyses were performed on a BD-LSR flow cytometer (Becton Dickinson) using the Cell Quest software. The Annexin VI positive and/or PI positive cells are considered apoptotic cells.
1.5×10^5 of Colo205 cells were seeded into the wells of 96-well plates. Aliquots of purified m5F1, c5F1, c5F1-v17, c5F1-v24, c5F1-v25 and control antibodies at the concentration ranging from 8 to 32 ug/ml were prepared freshly in culture medium and added to each well. The treated cells were kept at 37° incubator for 6 h before FACS analysis for apoptosis. For cellular apoptosis assay, Annexin V staining was measured using Annexin-V-FITC Apoptosis Detection Kit (Strong Biotech, Cat. No. AV 250) following the manufacturer's instruction. In brief, the treated cells were harvested and resuspended in Annexin V binding buffer containing Annexin V-FITC at room temperature. After 15 min incubation in the dark, the cells were washed twice with 200 ul of Annexin V binding buffer. Before FACS analysis, 0.25 ug/ml of propidium iodide (PI) was added. All flow cytometric analyses were performed on a BD-LSR flow cytometer (Becton Dickinson) using the Cell Quest software. The Annexin VI positive and/or PI positive cells are considered apoptotic cells.

For experiment [4], the system named is SU.86.86 cells. The experiment is described as follows: Apoptosis induction of SU.86.86 cells (6 h, Annexin V / PI). Format: cell-based. As to the method: as §2, with “2×10^5” for “1.5×10^5”, “SU86.86” for “COLO 205”, “12-well” for “96-well”, “m5F1” for “m5F1, c5F1-v0, c5F1-v15, c5F1-v16 and control antibodies”, “Control antibody at 32 ug/ml was included for background signal measurement.” for “The sample treated with m9E10 and h16C11A were used as isotype control.”
as §1

B1: c5F1-v16: chimeric 5F1, heavy chain v16 (hinge C220S), light chain v0[L] (antibody)
heavy: EVQLQQSGPELVKPGASVRMSCTASGYTFTSYVMHWIKQKPGQGLDWIGYINPYNGGTQYNEKFKGKATLTSDKSSSTAYMELSSLTSEDSAVYYCARRTFPYYFDYWGQGTTLTVSSASTKGPSVFPLAPSSKSTSGGTAALGCLVKDYFPEPVTVSWNSGALTSGVHTFPAVLQSSGLYSLSSVVTVPSSSLGTQTYICNVNHKPSNTKVDKKVEPKSSDKTHTCPPCPAPELLGGPSVFLFPPKPKDTLMISRTPEVTCVVVDVSHEDPEVKFNWYVDGVEVHNAKTKPREEQYNSTYRVVSVLTVLHQDWLNGKEYKCKVSNKALPAPIEKTISKAKGQPREPQVYTLPPRDELTKNQVSLTCLVKGFYPSDIAVEWESNGQPENNYKTTPPVLDSDGSFFLYSKLTVDKSRWQQGNVFSCSVMHEALHNHYTQKSLSLSPGK
light: DVLMTQTPLSLPVSLGDQASISCRSSQSILHSNGNTYLEWYLQKPGQSPKLLIYKVSNRFSGVPDRFSGSGSGTDFTLKISRVEAEDLGVYYCFQGSHAPLTFGAGTKLELKRTVAAPSVFIFPPSDEQLKSGTASVVCLLNNFYPREAKVQWKVDNALQSGNSQESVTEQDSKDSTYSLSSTLTLSKADYEKHKVYACEVTHQGLSSPVTKSFNRGEC
In the case of B1, the “binding to SU.86.86 cells” value with SU.86.86 cells [1] was “significant binding”. The “binding to Colo 205 (words)” value in the experiment on COLO 205 cells [2] is on record as “relatively less compared to c5F1”; in the experiment with COLO 205 cells [2] (listed as c5F1v16) it was “significant binding”. In addition, in the experiment on COLO 205 cells [3] (2 to 32 ug/ml, compared with m5F1), the “apoptosis-inducing activity in COLO 205” value was “almost as efficient as m5F1”. For the same molecule, the “% of Annexin V and/or PI positive cells” value in the experiment with COLO 205 cells [3] (Table 7, 4 ug/ml) was 58%; in the experiment with COLO 205 cells [3] (Table 7, 8 ug/ml) it was 78%; in the experiment on COLO 205 cells [3] (Table 7, 16 ug/ml) it was 92%; with COLO 205 cells [3] (Table 7, 32 ug/ml), 96%.

B2: m5F1: murine antibody 5F1, isotype murine IgG3; heavy chain V region SEQ ID NO:1, light chain V region SEQ ID NO:2 (antibody, V domains shown)
VH: MEWSWIFLFLLSGTAGVHSEVQLQQSGPELVKPGASVRMSCTASGYTFTSYVMHWIKQKPGQGLDWIGYINPYNGGTQYNEKFKGKATLTSDKSSSTAYMELSSLTSEDSAVYYCARRTFPYYFDYWGQGTTLTVSS
VL: MKLPVRLLVLMFWIPASSSDVLMTQTPLSLPVSLGDQASISCRSSQSILHSNGNTYLEWYLQKPGQSPKLLIYKVSNRFSGVPDRFSGSGSGTDFTLKISRVEAEDLGVYYCFQGSHAPLTFGAGTKLELK
modifications: Murine
On to B2, for which the “binding to SU.86.86 cells” value in the experiment on SU.86.86 cells [1] was “could bind”. Besides, the MFI in the experiment on SU.86.86 cells [1] (Table 14, antibody at 1 ug/ml) was 131. Besides, the “binding to Colo 205 (words)” value in the experiment on COLO 205 cells [2] was “significant binding”. Also, the “Median Fluorescence Intensity (MFI)” value in the experiment with COLO 205 cells [2] (Table 10, antibodies at 1 ug/ml) amounted to 800. The “% of Annexin V and/or PI positive cells” value in the experiment with COLO 205 cells [3] (Table 7, 2 ug/ml) came out at 35%; with COLO 205 cells [3] (Table 7, 4 ug/ml) it was 53%; with COLO 205 cells [3] (Table 7, 8 ug/ml), 76%; with COLO 205 cells [3] (Table 7, 16 ug/ml), 92%; with COLO 205 cells [3] (Table 7, 32 ug/ml), 93%; in the experiment on COLO 205 cells [3] (Table 11 Exp. 1, 8 ug/ml), 88%. Moreover, the “% of Annexin V and/or PI positive cells” value in the experiment on COLO 205 cells [3] (Table 11 Exp. 1, 16 ug/ml) worked out at 92%; in the experiment on COLO 205 cells [3] (Table 11 Exp. 1, 32 ug/ml), 92%; in the experiment on COLO 205 cells [3] (Table 11 Exp. 2, 8 ug/ml) it was 89%; with COLO 205 cells [3] (Table 11 Exp. 2, 16 ug/ml) it was 94%; in the experiment with COLO 205 cells [3] (Table 11 Exp. 2, 32 ug/ml), 96%; in the experiment with SU.86.86 cells [4] (2 ug/ml) it was 60%. For the same molecule, the “% of Annexin V and/or PI positive cells” value with SU.86.86 cells [4] (4 ug/ml) was determined as 72%; in the experiment with SU.86.86 cells [4] (8 ug/ml), 78%; in the experiment on SU.86.86 cells [4] (16 ug/ml) it was 89%; with SU.86.86 cells [4] (32 ug/ml), 91%. Moreover, the “apoptosis induction in SU.86.86 cells” value in the experiment on SU.86.86 cells [4] (2 to 32 ug/ml) was “induced apoptosis”.

For the origin of these results see patent US7982017B2, “Antibodies recognizing a carbohydrate containing epitope on CD-43 and CEA expressed on cancer cells and methods using same” (BioAlliance C.V., priority 2007, dated 2011).
